From patent US20250144228A1, “NANOBODY-DRUG ADDUCTS AND USES THEREOF” (priority 2022, published 2025)

B1: Anti-p83 B4: VHH specific for P. falciparum MSP-1 p83, SEQ ID NO: 12 (protein)
VHH: QLQLVESGGGLAQAGGSLRLSCAASGRTSSTKPMGWFRQAPGLEREFVASISWLGGSTLYSDSVKGRFTISRDNAKNTVYLQMNSLKSEDTAVYYCAGGTSAYSGRDSSRYEYWGQGTQVTVSSLPETGGHHHHHH
B2: VHHkappa: commercially available anti-mouse kappa chain VHH (nanobody clone TP1170), SEQ ID NO: 1 (protein)
VHH: QVQLVESGGGWVQPGGSLRLSCAASGFTFSDTAMMWVRQAPGKGREWVAAIDTGGGYTYYADSVKGRFTISRDNAKNTLYLQMNSLKPEDTARYYCAKTYSGNYYSNYTVANYGTTGRGTLVTVSSGG

Legend:
[1] = molecular target: T1, PfMSP-1 subunits, full length p190 pro-peptide (Plasmodium falciparum, UniProt Q8I0U8); assay type: binding
T1 construct: the three PfMSP-1 subunits, the full length p190 pro-peptide
T1 sequence (Q8I0U8 20-1699): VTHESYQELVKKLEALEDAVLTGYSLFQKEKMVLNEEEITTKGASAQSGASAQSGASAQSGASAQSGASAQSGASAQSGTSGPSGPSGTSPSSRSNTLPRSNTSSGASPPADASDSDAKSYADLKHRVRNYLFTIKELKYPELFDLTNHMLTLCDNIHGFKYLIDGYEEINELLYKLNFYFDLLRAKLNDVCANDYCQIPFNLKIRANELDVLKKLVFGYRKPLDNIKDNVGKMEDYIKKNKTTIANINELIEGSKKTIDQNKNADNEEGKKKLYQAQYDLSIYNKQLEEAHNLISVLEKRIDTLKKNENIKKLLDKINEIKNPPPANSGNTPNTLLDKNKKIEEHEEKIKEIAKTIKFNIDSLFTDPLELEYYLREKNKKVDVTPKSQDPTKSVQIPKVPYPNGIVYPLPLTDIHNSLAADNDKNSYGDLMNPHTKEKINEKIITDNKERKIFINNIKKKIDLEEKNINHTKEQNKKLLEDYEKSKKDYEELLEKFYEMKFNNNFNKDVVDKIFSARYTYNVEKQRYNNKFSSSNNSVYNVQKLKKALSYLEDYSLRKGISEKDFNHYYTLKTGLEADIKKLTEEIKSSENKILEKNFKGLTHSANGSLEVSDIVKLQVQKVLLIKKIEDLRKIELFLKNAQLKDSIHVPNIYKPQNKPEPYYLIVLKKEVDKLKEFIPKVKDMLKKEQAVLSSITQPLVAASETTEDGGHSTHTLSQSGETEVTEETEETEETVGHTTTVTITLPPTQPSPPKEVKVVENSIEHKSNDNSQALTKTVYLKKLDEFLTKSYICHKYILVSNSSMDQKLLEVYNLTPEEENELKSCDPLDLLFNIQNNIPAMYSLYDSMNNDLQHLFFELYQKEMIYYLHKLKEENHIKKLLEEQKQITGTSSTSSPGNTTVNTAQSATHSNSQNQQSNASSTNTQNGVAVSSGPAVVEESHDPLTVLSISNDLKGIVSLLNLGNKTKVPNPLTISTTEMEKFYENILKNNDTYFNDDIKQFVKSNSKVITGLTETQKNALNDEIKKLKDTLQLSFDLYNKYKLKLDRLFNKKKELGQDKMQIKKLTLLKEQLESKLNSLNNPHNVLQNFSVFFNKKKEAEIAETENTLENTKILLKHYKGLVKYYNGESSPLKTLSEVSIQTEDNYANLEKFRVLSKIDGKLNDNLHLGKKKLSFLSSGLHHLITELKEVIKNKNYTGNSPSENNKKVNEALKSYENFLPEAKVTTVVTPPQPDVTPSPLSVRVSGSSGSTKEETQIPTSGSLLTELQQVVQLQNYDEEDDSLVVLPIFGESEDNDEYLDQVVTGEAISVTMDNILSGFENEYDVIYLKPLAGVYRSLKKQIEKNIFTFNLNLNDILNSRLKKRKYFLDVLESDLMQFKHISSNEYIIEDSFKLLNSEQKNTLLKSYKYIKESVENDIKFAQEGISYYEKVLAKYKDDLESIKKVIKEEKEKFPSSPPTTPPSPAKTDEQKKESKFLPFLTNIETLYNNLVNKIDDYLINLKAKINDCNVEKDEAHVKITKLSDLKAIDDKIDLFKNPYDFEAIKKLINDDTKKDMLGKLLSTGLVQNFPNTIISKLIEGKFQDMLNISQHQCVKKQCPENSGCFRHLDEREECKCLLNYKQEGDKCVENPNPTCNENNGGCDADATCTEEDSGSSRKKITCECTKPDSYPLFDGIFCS
Procedure: (§1) FIG. 13A: Schematic of the PfMSP-1 pro-peptide and the four inclusive subunits: p83, p30, p38, and p42. FIG. 13B: Purified anti-p84 B4, anti-p38 B8, anti-p42 A6, and anti-p42 G11 VHHs were biotinylated and these VHHs were incubated with plate bound subunits proteins as indicated. Binding ELISA was detected by using streptavidin-HRP and tetramethylbenzidine (TMB). Data are represented as optical density (OD). Error bars show SEM. FIG. 13C: Western blot of VHHs against the three PfMSP-1 subunits, the full length p190 pro-peptide, and some 3D7 lysates from −38-44 hour 3D7 schizonts. FIG. 13D: Flow cytometry on synchronized ˜38-44 hour 3D7 schizonts using fluorescently (Cy5) labeled VHHs.
(§2) Purified VHH nanobodies were biotinylated and tested for specificity toward isolated MSP-1 subunits. Anti-p83 B4, anti-p38 B8, anti-p42 A6, and anti-p42 G11 VHHs were each incubated with plate-bound p83, p38, p42, and p42, and binding to the plates was detected by an enzyme-linked immunoassay (ELISA) using streptavidin-horseradish peroxidase (HRP) and tetramethylbenzidine (TMB). […] Finally, purified VHHs were tested against live ˜38-44 hour 3D7 schizonts in a flow cytometry assay.

[2] = test system: PfMSP-1 subunits, full length p190 pro-peptide; assay type: binding, Plasmodium falciparum
Procedure: as §1, §2

[3] = test system: P. falciparum merozoite surface protein 1 (MSP-1) subunits p83, p38, p42; assay: ELISA of biotinylated VHHs on plate-bound MSP-1 subunits; assay type: binding, Plasmodium falciparum; details: streptavidin-HRP and TMB
Procedure: as §1, with “FIGS. 13A-13D: VHH nanobodies bind specifically to Plasmodium falciparum: merozoite surface protein 1 (MSP-1). FIG. 13A:” for “FIG. 13A:”
as §2

mouse IgG2b = mouse IgG2b (Mus musculus, UniProt P01837); assay type: binding; details: mouse IgG2b-coated ELISA plates

Molecule | binding to lysate from ˜38-44 hour 3D7 schizonts [1] | binding to MSP-1 subunits and pro-peptide p190 (gel electrophoresis / Western blot) [2] | binding to plate-bound MSP-1 subunits (ELISA) [3] | binding to mouse IgG2b (in words) (mouse IgG2b)
B1 | observed to bind | bind to one subunit of MSP-1 and to the MSP-1 pro-peptide (p190), but not to any other subunit | bind specifically to one subunit | –
B2 | – | – | – | nanomolar affinity
